# Reference: paper PMC7877763 (2021)
# Residue numbers refer to the chain shown, from its start. Numbers in names are those of the source.
# B1: recombinant canine HSP47-R222S (natural protein)
# chain: LSPKAATLAERSAGLAFSLYQAMAKDQAVENILLSPVVVASSLGLVSLGGKATTASQAKAVLSAEQLRDEEVHAGLGELLRSLSNSTARNVTWKLGSRLYGPSSVSFAEDFVRSSKQHYNCEHSKINFRDKRSALQSINEWAAQTTDGKLPEVTKDVERTDGALLVNAMFFKPHWDEKFHHKMVDNSGFMVTRSYTVGVTMMHRTGLYNYYDDEKEKLQIVEMPLAHKLSSLIILMPHHVEPLERLEKLLTKEQLKIWMGKMQKKAVAISLPKGVVEVTHDLQKHLAGLGLTEAIDKNKADLSRMSGKKDLYLASVFHATAFEWDTEGNPFDQDIYGREELRSPKLFYADHPFIFLVRDTQSGSLLFIGRLVRPKGDKMRDEL
# B2: recombinant wild-type canine HSP47 (natural protein)
# chain: B1 chain with S187R
# Experiments:
# [1] = target: GPR-foldon (foldon stabilized collagen model peptide containing a (GPP)5GPR(GPP)6 collagen sequence) (biotinylated (site not stated) for the BLI experiment); assay: BLI
# [2] = target: full length pepsinized type I collagen from mouse tail tendon (mouse, UniProt P11087 152-1207; Q01149 86-1125); assay: SPR
# Sequence of full length pepsinized type I collagen from mouse tail tendon (P11087 152-1207, chain 1 of 2): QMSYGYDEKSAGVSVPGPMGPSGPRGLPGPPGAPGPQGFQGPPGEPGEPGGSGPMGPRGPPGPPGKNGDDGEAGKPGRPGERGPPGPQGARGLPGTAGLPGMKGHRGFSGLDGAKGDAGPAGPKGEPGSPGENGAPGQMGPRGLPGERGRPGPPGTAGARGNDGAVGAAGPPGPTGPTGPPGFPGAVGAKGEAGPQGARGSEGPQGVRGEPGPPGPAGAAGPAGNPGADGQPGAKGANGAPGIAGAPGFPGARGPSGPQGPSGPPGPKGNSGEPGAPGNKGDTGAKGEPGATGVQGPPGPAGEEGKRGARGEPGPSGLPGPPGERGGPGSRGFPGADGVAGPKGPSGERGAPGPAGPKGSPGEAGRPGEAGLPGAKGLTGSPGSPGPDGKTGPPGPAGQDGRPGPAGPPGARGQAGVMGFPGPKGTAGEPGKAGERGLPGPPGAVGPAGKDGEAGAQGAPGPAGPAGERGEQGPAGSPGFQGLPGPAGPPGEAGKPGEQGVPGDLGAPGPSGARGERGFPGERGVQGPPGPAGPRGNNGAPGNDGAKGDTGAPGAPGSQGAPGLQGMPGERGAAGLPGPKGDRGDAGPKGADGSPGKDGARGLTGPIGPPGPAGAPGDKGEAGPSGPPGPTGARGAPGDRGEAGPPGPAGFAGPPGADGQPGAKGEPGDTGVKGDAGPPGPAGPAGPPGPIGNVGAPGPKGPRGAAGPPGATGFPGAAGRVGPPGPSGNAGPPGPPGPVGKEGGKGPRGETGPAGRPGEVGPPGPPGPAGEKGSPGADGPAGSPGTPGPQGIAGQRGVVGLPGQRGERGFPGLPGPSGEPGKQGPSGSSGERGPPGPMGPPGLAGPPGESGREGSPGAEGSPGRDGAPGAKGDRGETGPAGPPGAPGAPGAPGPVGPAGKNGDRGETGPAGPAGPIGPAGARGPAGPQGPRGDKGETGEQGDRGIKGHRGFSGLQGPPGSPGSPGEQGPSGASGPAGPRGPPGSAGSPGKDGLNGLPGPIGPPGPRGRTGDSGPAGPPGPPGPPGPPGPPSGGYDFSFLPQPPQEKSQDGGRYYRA
# Sequence of full length pepsinized type I collagen from mouse tail tendon (Q01149 86-1125, chain 2 of 2): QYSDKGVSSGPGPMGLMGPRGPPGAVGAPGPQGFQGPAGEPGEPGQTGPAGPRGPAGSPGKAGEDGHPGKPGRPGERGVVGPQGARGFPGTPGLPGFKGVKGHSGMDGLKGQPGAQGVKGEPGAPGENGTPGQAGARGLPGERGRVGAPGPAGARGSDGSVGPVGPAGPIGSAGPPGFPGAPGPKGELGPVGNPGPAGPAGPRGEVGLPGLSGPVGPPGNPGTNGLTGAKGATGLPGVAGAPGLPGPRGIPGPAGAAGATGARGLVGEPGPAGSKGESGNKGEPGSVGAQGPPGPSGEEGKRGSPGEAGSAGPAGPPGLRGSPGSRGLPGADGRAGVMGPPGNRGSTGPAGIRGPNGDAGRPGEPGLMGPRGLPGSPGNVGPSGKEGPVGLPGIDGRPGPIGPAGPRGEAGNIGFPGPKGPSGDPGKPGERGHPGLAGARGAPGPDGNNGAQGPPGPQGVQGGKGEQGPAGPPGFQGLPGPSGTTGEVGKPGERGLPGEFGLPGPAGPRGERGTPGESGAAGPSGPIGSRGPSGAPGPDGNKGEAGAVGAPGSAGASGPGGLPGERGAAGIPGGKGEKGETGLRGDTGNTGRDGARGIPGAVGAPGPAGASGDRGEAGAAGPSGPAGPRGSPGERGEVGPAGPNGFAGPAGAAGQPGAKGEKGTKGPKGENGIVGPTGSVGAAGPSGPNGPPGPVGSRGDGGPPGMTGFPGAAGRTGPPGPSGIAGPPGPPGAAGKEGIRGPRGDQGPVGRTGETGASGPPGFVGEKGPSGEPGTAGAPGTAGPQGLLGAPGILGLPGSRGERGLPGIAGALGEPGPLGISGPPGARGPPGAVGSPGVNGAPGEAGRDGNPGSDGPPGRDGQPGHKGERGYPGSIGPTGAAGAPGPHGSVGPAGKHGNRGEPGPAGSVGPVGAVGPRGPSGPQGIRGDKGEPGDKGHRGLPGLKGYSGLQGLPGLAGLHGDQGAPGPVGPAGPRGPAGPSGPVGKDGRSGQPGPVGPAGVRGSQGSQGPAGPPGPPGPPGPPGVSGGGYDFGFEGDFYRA
Binder,koff [1] [s⁻¹],koff [2] [s⁻¹]
B1,0.0186,0.003
B2,0.0185,0.011
